Data reported in patent publication US20090075904A1 (CAMPINA NEDERLAND HOLDING B V, published 2009).

B1: LPL (peptide)
peptide: LPL
B2: APFPEVF (peptide)
peptide: APFPEVF
B3: HPIK (peptide)
peptide: HPIK
B4: IPI (peptide)
peptide: IPI
B5: MPLW (peptide)
peptide: MPLW
B6: GPFPIIV (peptide)
peptide: GPFPIIV
B7: LPLP (peptide)
peptide: LPLP
B8: LPVPQ (peptide)
peptide: LPVPQ
B9: YVPEPF (peptide)
peptide: YVPEPF
B10: LPVPQK (peptide)
peptide: LPVPQK
B11: GPFP (peptide)
peptide: GPFP
B12: LPVP (peptide)
peptide: LPVP
B13: VPYPQ (peptide)
peptide: VPYPQ
B14: PLLQ (peptide)
peptide: PLLQ
B15: KVLP (peptide)
peptide: KVLP
B16: APFPE (peptide)
peptide: APFPE
B17: PFP (peptide)
peptide: PFP
B18: PQSVLS (peptide)
peptide: PQSVLS
B19: VPLGTQ (peptide)
peptide: VPLGTQ
B20: LPQYL (peptide)
peptide: LPQYL
B21: EMPFPK (peptide)
peptide: EMPFPK

Each binder was assayed against T1, Dipeptidyl peptidase IV (DPP-IV) (UniProt P22411 38-766, limits assumed) (assay: cell-based or functional assay).
T1 sequence (P22411 38-766 limits assumed): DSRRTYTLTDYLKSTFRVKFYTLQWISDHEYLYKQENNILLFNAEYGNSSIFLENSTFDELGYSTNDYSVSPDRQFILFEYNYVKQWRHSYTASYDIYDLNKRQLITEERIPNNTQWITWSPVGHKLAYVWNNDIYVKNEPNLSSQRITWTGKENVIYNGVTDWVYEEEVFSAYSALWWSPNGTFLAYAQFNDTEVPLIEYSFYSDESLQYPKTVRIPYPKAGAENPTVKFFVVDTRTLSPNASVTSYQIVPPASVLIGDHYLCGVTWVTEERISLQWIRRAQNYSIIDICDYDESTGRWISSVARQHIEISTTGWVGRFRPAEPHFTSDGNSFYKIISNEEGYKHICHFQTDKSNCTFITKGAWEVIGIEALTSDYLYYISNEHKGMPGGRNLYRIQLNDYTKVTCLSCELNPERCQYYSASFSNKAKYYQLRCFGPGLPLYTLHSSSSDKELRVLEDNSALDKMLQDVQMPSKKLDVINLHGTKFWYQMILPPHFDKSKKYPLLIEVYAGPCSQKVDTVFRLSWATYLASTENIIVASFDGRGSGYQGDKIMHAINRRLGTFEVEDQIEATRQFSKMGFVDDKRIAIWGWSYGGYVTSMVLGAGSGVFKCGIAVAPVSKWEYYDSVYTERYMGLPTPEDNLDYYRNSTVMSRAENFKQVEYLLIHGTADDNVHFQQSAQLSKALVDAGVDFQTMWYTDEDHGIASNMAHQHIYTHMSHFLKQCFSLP
B1 was tested, and the “IC50 of DPP-IV inhibition (estimated from relative potency)” value was about 5 µM. In the case of B2, the “IC50 of DPP-IV inhibition (estimated from relative potency)” value is reported as about 120 µM. B3 was tested, and the “IC50 of DPP-IV inhibition (estimated from relative potency)” value was about 120 µM. For B4, the “IC50 of DPP-IV inhibition (estimated from relative potency)” value was about 5 µM.

Biological target: T1, Dipeptidyl peptidase IV (DPP-IV)
Experiment: cell-based or functional assay
Remark: another data set of the same source
In the case of B5, the “RELATIVE POTENCY [%] (DPP-IV inhibition assay, Gly-Pro-p-nitroanilide conversion, on-line LC-BCD-MS)” value is reported as 23%. In the case of B6, the “RELATIVE POTENCY [%] (DPP-IV inhibition assay, Gly-Pro-p-nitroanilide conversion, on-line LC-BCD-MS)” value is reported as 9%. In the case of B7, the “RELATIVE POTENCY [%] (DPP-IV inhibition assay, Gly-Pro-p-nitroanilide conversion, on-line LC-BCD-MS)” value is reported as 11%. For B8, the “RELATIVE POTENCY [%] (DPP-IV inhibition assay, Gly-Pro-p-nitroanilide conversion, on-line LC-BCD-MS)” value was 28%. With B9 the “RELATIVE POTENCY [%] (DPP-IV inhibition assay, Gly-Pro-p-nitroanilide conversion, on-line LC-BCD-MS)” value was 20%. B10 was tested, and the “RELATIVE POTENCY [%] (DPP-IV inhibition assay, Gly-Pro-p-nitroanilide conversion, on-line LC-BCD-MS)” value was 63%. For B11, the “RELATIVE POTENCY [%] (DPP-IV inhibition assay, Gly-Pro-p-nitroanilide conversion, on-line LC-BCD-MS)” value was 34%. B12 was tested, and the “RELATIVE POTENCY [%] (DPP-IV inhibition assay, Gly-Pro-p-nitroanilide conversion, on-line LC-BCD-MS)” value was 15%. For B1, the “RELATIVE POTENCY [%] (DPP-IV inhibition assay, Gly-Pro-p-nitroanilide conversion, on-line LC-BCD-MS)” value was 100%. For B13, the “RELATIVE POTENCY [%] (DPP-IV inhibition assay, Gly-Pro-p-nitroanilide conversion, on-line LC-BCD-MS)” value was 51%. With B14 the “RELATIVE POTENCY [%] (DPP-IV inhibition assay, Gly-Pro-p-nitroanilide conversion, on-line LC-BCD-MS)” value was 37%. With B15 the “RELATIVE POTENCY [%] (DPP-IV inhibition assay, Gly-Pro-p-nitroanilide conversion, on-line LC-BCD-MS)” value was 98%. In the case of B16, the “RELATIVE POTENCY [%] (DPP-IV inhibition assay, Gly-Pro-p-nitroanilide conversion, on-line LC-BCD-MS)” value is reported as 9%. For B17, the “RELATIVE POTENCY [%] (DPP-IV inhibition assay, Gly-Pro-p-nitroanilide conversion, on-line LC-BCD-MS)” value was 20%. For B18, the “RELATIVE POTENCY [%] (DPP-IV inhibition assay, Gly-Pro-p-nitroanilide conversion, on-line LC-BCD-MS)” value was 20%. B19 was tested, and the “RELATIVE POTENCY [%] (DPP-IV inhibition assay, Gly-Pro-p-nitroanilide conversion, on-line LC-BCD-MS)” value was 55%. With B2 the “RELATIVE POTENCY [%] (DPP-IV inhibition assay, Gly-Pro-p-nitroanilide conversion, on-line LC-BCD-MS)” value was 6%. With B3 the “RELATIVE POTENCY [%] (DPP-IV inhibition assay, Gly-Pro-p-nitroanilide conversion, on-line LC-BCD-MS)” value was 6%. In the case of B20, the “RELATIVE POTENCY [%] (DPP-IV inhibition assay, Gly-Pro-p-nitroanilide conversion, on-line LC-BCD-MS)” value is reported as 26%. With B4 the “RELATIVE POTENCY [%] (DPP-IV inhibition assay, Gly-Pro-p-nitroanilide conversion, on-line LC-BCD-MS)” value was 100%. With B21 the “RELATIVE POTENCY [%] (DPP-IV inhibition assay, Gly-Pro-p-nitroanilide conversion, on-line LC-BCD-MS)” value was 12%.
